Tested on: Escherichia coli TOP10
Test: shrunken log2 fold change of peptide-encoding DNA abundance (4.5 h post-induction vs induction); higher = less antimicrobial activity (less host growth inhibition)
Settings: time post-induction: 4.5 h; library: site-saturation at positions 5, 18, 19, 20
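Note: peptides expressed intracellularly from a pBAD plasmid library in pooled LB shake-flask culture, induced with 0.3% L-arabinose, DNA abundance read by NGS, three biological replicates, DESeq2 with apeglm shrinkage.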

Row | Sequence | shrunken log2 fold change
1 | RRIRDRPPRLPRPRPRPLQMPRP | 0.167
2 | RRIRDRPPRLPRPRPRPLQNPRP | 0.338
3 | RRIRDRPPRLPRPRPRPLQRPRP | -0.00347
4 | RRIRDRPPRLPRPRPRPLQTPRP | 0.135
5 | RRIRDRPPRLPRPRPRPLQYPRP | -0.373
6 | RRIRDRPPRLPRPRPRPLRAPRP | 1.15
7 | RRIRDRPPRLPRPRPRPLRCPRP | 0.177
8 | RRIRDRPPRLPRPRPRPLRHPRP | 0.358
9 | RRIRDRPPRLPRPRPRPLSLPRP | 0.0554
10 | RRIRDRPPRLPRPRPRPLSNPRP | -0.247
11 | RRIRDRPPRLPRPRPRPLVGPRP | 0.337
12 | RRIRDRPPRLPRPRPRPLVNPRP | 0.426
13 | RRIRDRPPRLPRPRPRPMADPRP | 0.523
14 | RRIRDRPPRLPRPRPRPMCIPRP | -0.121
15 | RRIRDRPPRLPRPRPRPMDDPRP | -0.000946
16 | RRIRDRPPRLPRPRPRPMEHPRP | 0.208
17 | RRIRDRPPRLPRPRPRPMFCPRP | 2.64
18 | RRIRDRPPRLPRPRPRPMFGPRP | 0.12
19 | RRIRDRPPRLPRPRPRPMGMPRP | -0.069
20 | RRIRDRPPRLPRPRPRPMGPPRP | -0.00107
21 | RRIRDRPPRLPRPRPRPMHSPRP | 0.117
22 | RRIRDRPPRLPRPRPRPMIHPRP | 0.318
23 | RRIRDRPPRLPRPRPRPMMSPRP | -0.0107
24 | RRIRDRPPRLPRPRPRPMNWPRP | 0.0175
25 | RRIRDRPPRLPRPRPRPMPAPRP | 0.354
26 | RRIRDRPPRLPRPRPRPMPLPRP | -0.0224
27 | RRIRDRPPRLPRPRPRPMPMPRP | 0.0753
28 | RRIRDRPPRLPRPRPRPMQDPRP | -0.0272

Row | Sequence | shrunken log2 fold change
29 | RRIRDRPPRLPRPRPRPMRAPRP | 0.953
30 | RRIRDRPPRLPRPRPRPMSNPRP | -0.0263
31 | RRIRDRPPRLPRPRPRPMSWPRP | 0.262
32 | RRIRDRPPRLPRPRPRPMTNPRP | -0.184
33 | RRIRDRPPRLPRPRPRPMVLPRP | 0.359
34 | RRIRDRPPRLPRPRPRPMVPPRP | 0.0555
35 | RRIRDRPPRLPRPRPRPNAPPRP | 0.209
36 | RRIRDRPPRLPRPRPRPNCRPRP | 0.0111
37 | RRIRDRPPRLPRPRPRPNCWPRP | -0.113
38 | RRIRDRPPRLPRPRPRPNCYPRP | -0.414
39 | RRIRDRPPRLPRPRPRPNDKPRP | -0.555
40 | RRIRDRPPRLPRPRPRPNDWPRP | -0.0967
41 | RRIRDRPPRLPRPRPRPNERPRP | 0.141
42 | RRIRDRPPRLPRPRPRPNEYPRP | 0.0406
43 | RRIRDRPPRLPRPRPRPNFDPRP | -0.0173
44 | RRIRDRPPRLPRPRPRPNGFPRP | -0.0113
45 | RRIRDRPPRLPRPRPRPNHDPRP | -0.312
46 | RRIRDRPPRLPRPRPRPNHMPRP | -0.776
47 | RRIRDRPPRLPRPRPRPNHWPRP | 0.0735
48 | RRIRDRPPRLPRPRPRPNMEPRP | 0.0616
49 | RRIRDRPPRLPRPRPRPNMMPRP | 0.0387
50 | RRIRDRPPRLPRPRPRPNNSPRP | -0.422
51 | RRIRDRPPRLPRPRPRPNPTPRP | 0.135
52 | RRIRDRPPRLPRPRPRPNPWPRP | 0.111
53 | RRIRDRPPRLPRPRPRPNQCPRP | -0.436
54 | RRIRDRPPRLPRPRPRPNQGPRP | 0.125
55 | RRIRDRPPRLPRPRPRPNQKPRP | 0.18

Source: the supplement of paper PMC9112550, “Optimization of the antimicrobial peptide Bac7 by deep mutational scanning” (BMC Biology, 2022)
